Legend:
[1] = target: T1, recombinant human E-cadherin ECD (human, UniProt P12830 155-709); assay: ELISA, ECD coated on plate, Fab-containing E. coli lysate
T1 construct: extracellular domain; also called E-cadherin (CDH1)
T1 sequence (looked up): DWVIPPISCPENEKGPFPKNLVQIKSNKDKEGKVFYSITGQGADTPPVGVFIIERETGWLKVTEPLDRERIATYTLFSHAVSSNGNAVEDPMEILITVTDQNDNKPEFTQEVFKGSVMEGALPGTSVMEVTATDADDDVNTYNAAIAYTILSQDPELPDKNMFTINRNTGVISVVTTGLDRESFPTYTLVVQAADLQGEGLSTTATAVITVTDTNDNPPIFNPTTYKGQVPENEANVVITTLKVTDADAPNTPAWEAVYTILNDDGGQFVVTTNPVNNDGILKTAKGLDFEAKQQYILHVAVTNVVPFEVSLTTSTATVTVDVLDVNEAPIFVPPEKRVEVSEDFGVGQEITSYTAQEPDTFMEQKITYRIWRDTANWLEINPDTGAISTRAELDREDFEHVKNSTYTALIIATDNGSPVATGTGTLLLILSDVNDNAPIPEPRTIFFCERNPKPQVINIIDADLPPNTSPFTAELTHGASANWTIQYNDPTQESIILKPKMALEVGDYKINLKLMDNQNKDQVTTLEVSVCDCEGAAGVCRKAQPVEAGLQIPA
Protocol: (§1) To assess specificity of binding to P-cadherin vs E-cadherin and N-cadherin, Maxisorp 384-well plates were o/n at 4° C. with recombinant human E-cadherin or N-cadherin ECD and Fab fragments were assayed using an enzyme-linked immunosorbent assay (ELISA) format. After washing, plates were blocked for 2 h with 5% skim milk in 1×PBST. Fab-containing E. coli lysates were added and binding allowed for 1 h at room temperature (RT). To detect bound Fab fragments, plates were washed 5× with TBST and AP-anti human IgG F(ab′)₂ was added in a 1/2500 dilution. After 1 h at RT, plates were washed 5× with TBST and AttoPhos substrate was added according to the manufacturers specifications. Plates were read in an ELISA reader 5 minutes after adding the substrate.

[2] = target: T2, recombinant human N-cadherin ECD (human, UniProt P19022 160-724); assay: as above
T2 construct: extracellular domain; also called N-cadherin (CDH2)
T2 sequence (looked up): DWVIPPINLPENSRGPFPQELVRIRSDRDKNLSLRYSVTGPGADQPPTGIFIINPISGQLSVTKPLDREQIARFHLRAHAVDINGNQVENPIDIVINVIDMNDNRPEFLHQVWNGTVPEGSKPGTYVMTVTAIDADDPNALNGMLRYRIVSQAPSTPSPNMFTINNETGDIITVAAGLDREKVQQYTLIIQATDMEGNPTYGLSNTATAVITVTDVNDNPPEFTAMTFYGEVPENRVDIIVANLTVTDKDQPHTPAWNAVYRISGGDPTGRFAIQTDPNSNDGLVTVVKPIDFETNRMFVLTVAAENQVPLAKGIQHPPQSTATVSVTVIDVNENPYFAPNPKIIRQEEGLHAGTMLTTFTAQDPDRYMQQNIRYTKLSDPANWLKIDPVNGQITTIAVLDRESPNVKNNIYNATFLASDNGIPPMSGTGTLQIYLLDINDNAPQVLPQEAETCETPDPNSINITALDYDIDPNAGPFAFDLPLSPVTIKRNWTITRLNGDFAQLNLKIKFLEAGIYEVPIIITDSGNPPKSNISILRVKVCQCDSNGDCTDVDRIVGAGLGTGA
Protocol: as §1

- binding result [1]: no binding
- binding result [2]: no binding
B1: NOV169N31Q Fab (Fab, V domains shown)
VH: QVQLQQSGPGLVKPSQTLSLTCAISGDSVSSQSAAWNWIRQSPSRGLEWLGRIYYRSKWYNDYALSVKSRITINPDTSKNQFSLQLNSVTPEDTAVYYCARGEGYGREGFAIWGQGTLVTVSS
VL: DIQMTQSPSSLSASVGDRVTITCRASQTISNTLAWYQQKPGKAPKLLIYAASNLQSGVPSRFSGSGSGTDFTLTISSLQPEDFATYYCQQYLSWFTFGQGTKVEIKR
notes: Expressed in E. coli; also called Fab fragment of NOV169N31Q
